Data published in patent US20260226158A1 (DE NOVO BIOTHERAPEUTICS, published 2026).
Changes are numbered by the printed parent chain. Where two headings read alike, the source gives them in different places. Blank lines part the entries; values can stand above or below the binder they belong to.

Assays:
[1] = target: T1, 6506GJ130-1A: Human NKP46 Recombinant Protein (His) (human, UniProt O76036 22-258, limits assumed); experiment: ELISA on coated human NKp46 protein, HRP anti-human IgG, OD 450 nm [label printed at foot of D00002]]
T1 construct: also called human NKp46 protein; not shown: His tag
T1 sequence (O76036 22-258 limits assumed): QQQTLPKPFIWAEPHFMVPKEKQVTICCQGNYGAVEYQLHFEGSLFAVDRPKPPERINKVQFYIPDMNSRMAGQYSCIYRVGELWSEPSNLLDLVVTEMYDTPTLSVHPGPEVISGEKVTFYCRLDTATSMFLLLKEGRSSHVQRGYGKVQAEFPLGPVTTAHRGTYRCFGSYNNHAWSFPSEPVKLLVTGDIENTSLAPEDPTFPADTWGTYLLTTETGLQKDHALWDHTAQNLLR
Protocol: (§1) Human NKp46 protein and monkey NKp46 protein were each added at a concentration of 0.5 μg/mL to a 96-well plate and reacted for 1 hour at 37° C., followed by three washes with an appropriate volume of washing solution (0.05% Tween20, PBS), and then treated with 150 μL of blocking solution (1% BSA, PBS) for 1 hour at 37° C. After washing three times with an appropriate volume of washing solution (0.05% Tween20, PBS), the wells were treated with 3 serial dilutions of 1 μg/mL of anti-human NKp46 antibody at the maximum concentration and reacted for 1 hour at 37° C. […] The degree of binding between antigen and antibody was detected with 3′,5,5′-tetramethylbenzidine solution. Finally, the reaction was stopped by adding 1M HCl, and the absorbance was measured at 450 nm using an ELISA reader (Thermo Fisher Scientific). Four antibodies (1-2, 1-4-2, 1-8, and 1-10) that specifically bind to human NKp46 and monkey NKp46 were selected by the above two binding tests.

monkey NKp46 protein [2] = target: monkey NKp46 protein (monkey); experiment: ELISA on coated monkey NKp46 protein (title 'Cyno NKp46'), HRP anti-human IgG, OD 450 nm
monkey NKp46 protein (monkey), sequence (Q95JB9 22-257): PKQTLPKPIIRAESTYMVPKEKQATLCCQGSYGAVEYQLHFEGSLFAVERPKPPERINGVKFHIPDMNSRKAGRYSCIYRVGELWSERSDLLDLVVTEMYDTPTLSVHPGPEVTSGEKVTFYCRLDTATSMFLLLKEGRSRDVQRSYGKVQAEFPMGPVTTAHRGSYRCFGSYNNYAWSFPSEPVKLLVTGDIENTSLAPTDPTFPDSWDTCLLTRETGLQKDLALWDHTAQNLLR
Protocol: as §1

monkey NKp46 protein [3] = target: monkey NKp46 protein (monkey); experiment: as above; remark: listed apart in the source
[4] = target: T1, 6506GJ130-1A: Human NKP46 Recombinant …; experiment: ELISA on coated human NKp46 protein (title 'Human NKp46'), HRP anti-human IgG, OD 450 nm [label printed on D00006]]

EC50 (read off the curve) [1]: ~0.2 nM
EC50 (read off the curve) (monkey NKp46 protein [2]): ~0.2 nM
B1: u6506gj130-1-10 (antibody, human IgG4 S228P, kappa, V domains shown)
VH: QVQLQQPGAELVKPGASVKLSCKASGYIFTSYWMHWVKQRPGQGLEWIGMIHPNSGSTNYNEKFKSKATLTVDKSSSTAYMQLSSLTSEDSAVYYCAREGNWARGYFEYWGQGTTLTVSS
VL: DIKMTQSPSSMYASLGERVTITCKASQDINSYLSWFQQKPGKSPKTLIYRANRLVDGVPSRFSGSGSGQDYSLTISSLEYEDVGMYYCLQYDEFPYTFGGGTKLEIKR
notes: Beacon screening

EC50 (read off the curve) [1]: ~0.2 nM
B2: u6506gj130-1-2 (antibody, human IgG4 S228P, kappa, V domains shown)
VH: EVQLQQSGPELVKPGASVKISCQASGYTFTDYYLNWVKQSHGKSLEWIGDIDPHNGGTSYNQKFKDKATLTVDKSSSTAYMELRSLTSEDSAVYYCARFPIYYSGSSPMDYWGQGTSVTVSS
VL: DIQMTQSPASLSASVGETVTITCRTNENIFSYLAWYQQKQGKSPQLLVYNAKTLAEGVPSRFSGSASGTQFSLKINTLQPEDFGSYYCQHHYGTPYTFGGGTKLEIIR
notes: Beacon screening

EC50 (read off the curve) (monkey NKp46 protein [3]): ~0.03 nM
EC50 (read off the curve) [4]: ~0.05 nM
B3: 32C9F4 (antibody, human IgG4 S228P, kappa, V domains shown)
VH: QVQLQQPGAELVKPGASVKLSCKASGYTFTSYWMHWVKQRPGQGLEWIGMIHPNSGVTKYNEKFKSKATLTVDKSSSTAYMQLSSLTSEDSAVYFCAGDGRFAYWGQGTLVTVSA
VL: DIQMTQSPSSLSASLGERVSLTCRASQDIGSSLNWLQQEPDGTIKRLIYATSSLDSGVPKRFSGSRSGSDYSLTISSLESEDFVDYYCLQYASSPWTFGGGTKLEIKR
notes: Hybridoma screening; also called 2-2

EC50 (read off the curve) (monkey NKp46 protein [3]): ~0.03 nM
EC50 (read off the curve) [4]: ~0.03 nM
B4: 28E10B12 (antibody, human IgG4 S228P, kappa, V domains shown)
VH: QVQLQQPGAELVKPGASVKLSCKASGYTFTSYWMNWVKQRPGQGLEWIGMIHPNSDITNYNEKFKSQATLTVDKSSSTAYMQLSSLTSEDSAVYYCARHGRFDYWGQGTTLTVSS
VL: B3 VL with S20T, W96F, G100S
notes: Hybridoma screening; also called 2-3

EC50 (read off the curve) (monkey NKp46 protein [3]): ~0.06 nM
EC50 (read off the curve) [4]: ~0.05 nM
B5: 45A10D5 (antibody, human IgG4 S228P, kappa, V domains shown)
VH: B3 VH with V57S, K59N, F95Y, A97V, G98Y
VL: B3 VL with W96F, G100S
notes: Hybridoma screening; also called 2-1
